The text below walks through data of publication PMC10897489.

pKd: −log10 of the molar value.

The target of this experiment is GST-NSP3 1–181 (SARS-CoV-2). Put plainly: ITC.

Take “His-FXR1 215–360 (from UniProt A0A0F7L1S3 215-360) (domain or fragment)”: the pKd was 5.54 to 5.64.
